To fix the notation:
B1: Rho guanine nucleotide exchange factor 11 (Homo sapiens), O15085 (parent)
chain: MSVRLPQSIDRLSSLSSLGDSAPERKSPSHHRQPSDASETTGLVQRCVIIQKDQHGFGFTVSGDRIVLVQSVRPGGAAMKAGVKEGDRIIKVNGTMVTNSSHLEVVKLIKSGAYVALTLLGSSPSSMGISGLQQDPSPAGAPRITSVIPSPPPPPPLPPPQRITGPKPLQDPEVQKHATQILRNMLRQEEKELQDILPLYGDTSQRPSEGRLSLDSQEGDSGLDSGTERFPSLSESLMNRNSVLSDPGLDSPRTSPVIMARVAQHHRRQGSDAAVPSTGDQGVDQSPKPLIIGPEEDYDPGYFNNESDIIFQDLEKLKSRPAHLGVFLRYIFSQADPSPLLFYLCAEVYQQASPKDSRSLGKDIWNIFLEKNAPLRVKIPEMLQAEIDSRLRNSEDARGVLCEAQEAAMPEIQEQIHDYRTKRTLGLGSLYGENDLLDLDGDPLRERQVAEKQLAALGDILSKYEEDRSAPMDFALNTYMSHAGIRLREARPSNTAEKAQSAPDKDKWLPFFPKTKKSSNSKKEKDALEDKKRNPILKYIGKPKSSSQSTFHIPLSPVEVKPGNVRNIIQHFENNQQYDAPEPGTQRLSTGSFPEDLLESDSSRSEIRLGRSESLKGREEMKRSRKAENVPRSRSDVDMDAAAEATRLHQSASSSTSSLSTRSLENPTPPFTPKMGRRSIESPSLGFCTDTLLPHLLEDDLGQLSDLEPEPDAQNWQHTVGKDVVAGLTQREIDRQEVINELFVTEASHLRTLRVLDLIFYQRMKKENLMPREELARLFPNLPELIEIHNSWCEAMKKLREEGPIIKEISDLMLARFDGPAREELQQVAAQFCSYQSIALELIKTKQRKESRFQLFMQEAESHPQCRRLQLRDLIISEMQRLTKYPLLLESIIKHTEGGTSEHEKLCRARDQCREILKYVNEAVKQTENRHRLEGYQKRLDATALERASNPLAAEFKSLDLTTRKMIHEGPLTWRISKDKTLDLHVLLLEDLLVLLQKQDEKLLLKCHSKTAVGSSDSKQTFSPVLKLNAVLIRSVATDKRAFFIICTSKLGPPQIYELVALTSSDKNTWMELLEEAVRNATRHPGAAPMPVHPPPPGPREPAQQGPTPSRVELDDSDVFHGEPEPEELPGGTGSQQRVQGKHQVLLEDPEQEGSAEEEELGVLPCPSTSLDGENRGIRTRNPIHLAFPGPLFMEGLADSALEDVENLRHLILWSLLPGHTMETQAAQEPEDDLTPTPSVISVTSHPWDPGSPGQAPPGGEGDNTQLAGLEGERPEQEDMGLCSLEHLPPRTRNSGIWESPELDRNLAEDASSTEAAGGYKVVRKAEVAGSKVVPALPESGQSEPGPPEVEGGTKATGNCFYVSMPSGPPDSSTDHSEAPMSPPQPDSLPAGQTEPQPQLQGGNDDPRRPSRSPPSLALRDVGMIFHTIEQLTLKLNRLKDMELAHRELLKSLGGESSGGTTPVGSFHTEAARWTDGSLSPPAKEPLASDSRNSHELGPCPEDGSDAPLEDSTADAAASPGP

Nine variants from IntAct's records for PubMed 20300064 can be followed below.

In the first assay the parent is B1. The following applies: with rhoa_human RHOA.
On to E928A, for which the “effect of a mutation on the interaction” value is “disrupting interaction”.

In the next assay the parent is B1. As to conditions: with rhoa_human RHOA. The source holds these as a separate data set.
For I876M, the “effect of a mutation on the interaction” value was “disrupting interaction”. D873N: the “effect of a mutation on the interaction” value was “disrupting interaction”. On the same count and under the same terms, next, R872D: “disrupting interaction”.

A further assay covers variants of B1. As to conditions: with rhoa_human RHOA. This is another data set of the same source.
Consider L869A, for which the “effect of a mutation on the interaction” value is on record as “disrupting interaction”. With R867Q, the “effect of a mutation on the interaction” value was “disrupting interaction”. With R868G, the “effect of a mutation on the interaction” value is given as “disrupting interaction”.

Variants of B1 are the subject of a further assay. The following applies: with rhoa_human RHOA. This is another data set of the same source.
As to E741N, the “effect of a mutation on the interaction” value is reported as “decreasing interaction”. On to S748A, for which the “effect of a mutation on the interaction” value is recorded as “decreasing interaction”.
